The values that follow come from the RNAGym collection of RNA variant scans (doi:10.7554/elife.80360).

The chains are these.
B1: HDV Ribozyme (parent)
chain: GGCCGGCAUGGUCCCAGCCUCCUCGCUGGCGCCGGCUGGGCAACAUUCCGAGGGGACCGUCCCCUCGGUAAUGGCGAAUGGGACCCA

In this data set the parent is B1. The data set is described as follows: self-cleavage, relative activity (ratio to wild type); higher = more cleavage; co-transcriptional.
As for G28U G73C, the self-cleavage came to 0.

Consider G28U G73A, for which the self-cleavage turned out to be 0.

For the variant G29A C36A, the self-cleavage is 0.0222. As to G29A C36G, the self-cleavage was 0.111. The value for G28C C86A was 0.0583; that for G28C C86G was 0.0692. Consider G28U C75A, for which the self-cleavage amounted to 0.0755. G28C C61U: the self-cleavage was 0.185. To G28C G55A belongs 0.18; to G28C G55U, 0.196; to G28A A45U, 0.128.

Consider G28C G39A, for which the self-cleavage came to 0.0744.

As to G28C G39C, the self-cleavage came out at 0. The value for G28C A87C was 0.0987; that for G28C A87G was 0.125; that for G28C A87U was 0.0455. The value for G28U A70U was 0; that for G28C G29U was 0; that for G28U G80C was 0.0639. As to U27G G28C, the self-cleavage was determined as 0.554. To U27G G28U belongs 0.612; to U27G G28A, 0.499. The value for U27G G55U was 1. The value for G28A A71C was 0.162.

G28A A71U: the self-cleavage stood at 0.0292. To G28C C66G belongs 0.13; to U27G U47G, 1.27; to U27G U47A, 0.697. The value for U27G G67A was 1.1; that for G28U A45G was 0.208; that for U27G G40C was 0.0639. For U27G G40A, the self-cleavage was determined as 0.889.

On to U27G G40U, for which the self-cleavage stood at 0.293. Take G28A C84G: the self-cleavage was 0.0378. To G28A U60G belongs 0.0386; to G28A U60A, 0.178; to G28A U60C, 0.0811. On to G28C C64A, for which the self-cleavage was determined as 0.104.

Consider G28C C64U, for which the self-cleavage was determined as 0.198. To G28U C86G belongs 0.217; to U27G U37C, 0.762; to G28U G53C, 0.0692.

For the variant G28U G53A, the self-cleavage is 0.0801. The value for G28U G53U was 0.124; that for G28U A43G was 0.131; that for G28U A43C was 0.0755.

As for G28U G31C, the self-cleavage came to 0.189. The value for G28A G59U was 0.117.

With G28A G59C, the self-cleavage was 0.086. With G28U C48U, the self-cleavage was 0.0361. To G28U C48A belongs 0.125; to G28C C48U, 0.0978; to G28A G38U, 0.0496. The value for G28U A42U was 0.138.

Regarding G28U A42C, the self-cleavage worked out at 0.0415. On to G28U U79G, for which the self-cleavage amounted to 0.0978. The value for G28U U79A was 0.0978; that for G28U U79C was 0.0707.

For G28A U65G, the self-cleavage worked out at 0.0386. Consider G28A U65A, for which the self-cleavage amounted to 0.0755. The value for G29A A56G was 0.224. For the variant G29A A56C, the self-cleavage stood at 0.198. To G28C A71G belongs 0.222; to G28A G52A, 0.0764; to G28A G52U, 0.0475. To G28A G73U belongs 0.0326; to G28A G73C, 0.0256; to G28A U69G, 0.

As to G29A A45C, the self-cleavage is 0. The value for G29A A45G was 0.142; that for G29A A45U was 0.0332; that for U27G U65C was 0.965. The value for U27G U65A was 1.03. The value for U27G U65G was 0.95; that for U27G G31C was 0.344; that for U27G G31U was 0.293. In the case of G28C G34C, the self-cleavage came to 0.156.

On to G28C G34U, for which the self-cleavage was 0.0386. Take U27G G54A: the self-cleavage was found to be 0.578. To U27G G54U belongs 0.997. For G29A A83G, the self-cleavage amounted to 0.0611. To G29A A83U belongs 0.208. To G28C U79A belongs 0; to G28C U79C, 0.155. Consider G28U A83U, for which the self-cleavage worked out at 0.0415. To G28U U60C belongs 0.0755; to G28U U60A, 0.17; to G28C C85A, 0.0475. The value for G29A A70G was 0.17; that for G29A A70U was 0.0739.

Take G29A A70C: the self-cleavage is 0.0978. The value for G28U G35U was 0.0936.

Regarding G28C G50C, the self-cleavage was determined as 0.0437. To G28U G39C belongs 0.125; to G28U G39A, 0.0256; to G29A C32U, 0.218.

For G29A C32A, the self-cleavage came out at 0.0222.

For G28A A87C, the self-cleavage stood at 0.0676.

As to G28A C85A, the self-cleavage worked out at 0.0369. Consider G28A C85G, for which the self-cleavage is 0.0332. With G28U C63U, the self-cleavage is 0.12.

In the case of G29A A51U, the self-cleavage amounted to 0.277.

As to G29A A51G, the self-cleavage was determined as 0.366. To G28A U46A belongs 0.0326; to G28A U46C, 0.0594; to G28A U79G, 0.0489.

Take G28C C44G: the self-cleavage came out at 0. The value for G29A A77G was 0.095; that for G28C A43U was 0.111; that for G28U C57A was 0.102. To G28U C57U belongs 0.208; to G28A C61U, 0.0631.

As for G28C C32G, the self-cleavage is 0.

G28C C32A: the self-cleavage was found to be 0.154. For G29A A78G, the self-cleavage is 0.0804. The value for G29A A78C was 0.0997; that for G28U A87C was 0.113. The value for G28C U60C was 0.0852; that for G28A G31C was 0; that for G28A G31U was 0.133. For G28U A77C, the self-cleavage was determined as 0.0475. Consider G28U C64A, for which the self-cleavage came to 0.125. The value for G28U G76A was 0.142.

In the case of G28U G76U, the self-cleavage was found to be 0.187. To G28U G76C belongs 0.242. The value for G28U C33U was 0.117; that for G28U C33A was 0.124.

Consider G28C G74C, for which the self-cleavage stood at 0.151. The value for G28C G74U was 0.0692. To G28U G29C belongs 0.106; to G28C A42G, 0; to G28C A42U, 0.166. The value for G28C G53U was 0.123. G28C G53C: the self-cleavage was found to be 0. The value for G28C G53A was 0.0941. The value for G28C A56G was 0.107; that for G28C A56U was 0.138; that for G28U C62A was 0.154. The value for G28U C62U was 0.205; that for G28U U72A was 0; that for G28C U46C was 0.0723. Regarding G28C U46G, the self-cleavage was found to be 0.0755. The value for G28U C36U was 0; that for G28U C36A was 0.0898; that for G28U C36G was 0.0665.

For the variant U27G U46A, the self-cleavage was determined as 0.332. The value for U27G U46C was 0.997; that for G28U G34U was 0.117. For the variant G28U G34C, the self-cleavage is 0.101. To G28A G54U belongs 0.0733; to G28A G54A, 0.0811; to U27G U79C, 0.308. For U27G C85G, the self-cleavage stood at 1.29. To U27G C85A belongs 0.831. The value for U27G C85U was 0.807. In the case of G28U G68C, the self-cleavage was 0.0733. The value for G28C U37G was 0; that for G28C U37A was 0.229.

For G28A G67U, the self-cleavage is 0.0536.

In the case of G29A A43G, the self-cleavage came out at 0.0386. Regarding G29A A43U, the self-cleavage worked out at 0.0252. To G28U C58G belongs 0.0852. Consider G28U C49G, for which the self-cleavage was 0.116. Consider G28C C33A, for which the self-cleavage was 0.106. The value for G28C C33U was 0.232; that for G28C G82A was 0.0852; that for G28C G82U was 0.102.
